The nature of the data set: yeast display, Sf9 membrane polyspecificity reagent, FACS + sequencing; frameworks hold sequencing errors. The procedure, abridged:
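Sorting gates, low and high (top ~1%), were placed on anti-HA fluorescence to track expression and on streptavidin fluorescence to track reagent binding. A clone's polyreactivity label is taken from the gate it came out of. The reagent was 10% biotinylated, detergent-solubilized Sf9 membrane, applied for 1 hour at 4 °C to galactose-induced yeast display cells.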
Regarding “QVQLVESGGGLVQAGGSLRLSCAASGSIFKSYAMGWYRQAPGKERELVAAISGRTGSTYYADSVKGRFTISRDNAKNTVSLQMNSLKPEDTAVYYCAAKSQSLYPFAMNYWGQGTQVTVSS”, the “polyreactivity (PSR sort gate)” value was “high polyreactivity”.

As for “QVQLVESGGGLVQAGGSLRLSCAASGSIFKSYAMGWYRQAPGKERELVAAISGSGGRTYYADSVKGRFTISRDNAKNTAYLQMNSLKPEDTAVYYCNALASIRTHTGYAYSPPYDYWGQGTQVTVSS”, the “polyreactivity (PSR sort gate)” value is recorded as “high polyreactivity”.

For the sequence “QVQLVESGGGLVQAGGSLRLSCAASGSIFKTNAMGWYRQAPGKERELVAGISNGGSTNYADSVKGRFTISRDNAKNTVYFQMNSLKPEDTAVYYCAAEYEYLWSQYLTDYGYDSWGQGTQVTVSS”, the “polyreactivity (PSR sort gate)” value was “low polyreactivity”.

Consider “QVQLVESGGGLVQAGGSLRLSCAASGSIFKVYAMGWYRQAPGTERELVAGITLNGGSTYYADSVKGRFTISRDNAKNNVYLQMNSLKPEDTAVYYCNAVYSYYYRWYYDFDYWGQGTQVTVSS”, for which the “polyreactivity (PSR sort gate)” value was “high polyreactivity”.

In the case of “QVQLVESGGGLVQAGGSLRLSCAASGSIFKYAMGWSRQAPGKERELVAAINQRGGRTYYADSVKGRFTISRDNAKNTVYLQMNSLKPEDTAVYYCNAYYLRTSSTEYDYWGQGTQVTVSS”, the “polyreactivity (PSR sort gate)” value is “high polyreactivity”.

As for “QVQLVESGGGLVQAGGSLRLSCAASGSIFKYNDMGWYRQAPGKERELVAAISWRGGRTYYADSVKGRFTISRDNAKNTVYLQMNSLKPEDTAVYYCNVVLDNRRGTYSYYYWGQGTQVTVSS”, the “polyreactivity (PSR sort gate)” value is given as “high polyreactivity”.

As for “QVQLVESGGGLVQAGGSLRLSCAASGSIFKYNDMGWYRQAPGKEREWVAAIRLGGGSTSYADSVKGRFTISRDNAKNTVYLQMNSLKPEDTAVYYCNAYAVYLRYLWYDYWGQGTQVTVSS”, the “polyreactivity (PSR sort gate)” value is “low polyreactivity”.

Consider “QVQLVESGGGLVQAGGSLRLSCAASGSIFKYNTMGWYREAPGKESELVAAINGGGSTYYADSVKGRFTISRDNAKNTVYVTMNCLNPEDTAVYYCAKVQRTRGWSLDYWGHGTQVTVSS”, for which the “polyreactivity (PSR sort gate)” value is on record as “high polyreactivity”.

Consider “QVQLVESGGGLVQAGGSLRLSCAASGSIFKYYAMGGYRQAPGTERELVAAITQRGGSTYYADSVKGRFTISRDNAKNTGYLQMNRLNPEDTAVYYCNRYSLTAWYYRHGYYYWGQGTQVTVSS”, for which the “polyreactivity (PSR sort gate)” value is recorded as “high polyreactivity”.

For “QVQLVESGGGLVQAGGSLRLSCAASGSIFKYYAMGWYRQAPGKERELVAAISRSGTSTYYADSVKGRFTISRDNAKNTVYLQMNSLKPEDTAVYYCAARLSYYSRMNYWGQGTQVTVSS”, the “polyreactivity (PSR sort gate)” value is “high polyreactivity”.

“QVQLVESGGGLVQAGGSLRLSCAASGSIFKYYAMGWYRQAPGKERELVAAISSGGSTKYADSVKGRFTISRDNAKNTVYLQMNSLKPEDTAVYYCAARDPSRHARRAYDYWGEGTQVTVSS”: the “polyreactivity (PSR sort gate)” value is “low polyreactivity”.

In the case of “QVQLVESGGGLVQAGGSLRLSCAASGSIFKYYAMGWYRQAPGKERQLVAVITSGGSTYYADSVKGRFTISRDNAKNTVYLQMNSLKPEDTAVYYCAAGVRAYNWGEYDYWGLGTQVTVSS”, the “polyreactivity (PSR sort gate)” value is reported as “low polyreactivity”.

In the case of “QVQLVESGGGLVQAGGSLRLSCAASGSIFKYYSMGWYRQAPGKERELVAAITIGGNTNYADSVKGRFTISRDNAKNTVYLQLNSLKPEDTAVYYCATGGYYSAIVYGGYDYWGQGTQVTVSS”, the “polyreactivity (PSR sort gate)” value is “low polyreactivity”.

Turning to “QVQLVESGGGLVQAGGSLRLSCAASGSIFLAYAMGWYRQAPGKEREFVAAISFSDGSTYYADSVKGRFTISRDNAKNTVYLQMNSLKPEETAVYYCNKGASPDDYDYWGQGTQVTVSS”, the “polyreactivity (PSR sort gate)” value was “low polyreactivity”.

For the sequence “QVQLVESGGGLVQAGGSLRLSCAASGSIFLEYAMGWYRQAPGKERELVAAISSSGGSTYYADSVKGRFTISRDNAKNTVYLQMNSLKPEDTAVYYCAAGKSKYGVRGYYWGQGTQVTVSS”, the “polyreactivity (PSR sort gate)” value was “high polyreactivity”.

Regarding “QVQLVESGGGLVQAGGSLRLSCAASGSIFLFNAMGWYRQAPGKERELVAAINRDDSTYYADSVKGRFTISRDNAKNTVYLQMNSLKPEDTAVYYCAARQRLSWKTEYYWGQGTQVTVSS”, the “polyreactivity (PSR sort gate)” value is given as “low polyreactivity”.

For the sequence “QVQLVESGGGLVQAGGSLRLSCAASGSIFLKNAMGWYRQAPGKERELVAAITPGGSTYYADSVKGRFTISRDNAKNTVYFQMNSLKPEDSAVYHCAARPGGGKYRGYYYWGQGTQVTVSS”, the “polyreactivity (PSR sort gate)” value is “high polyreactivity”.

Take “QVQLVESGGGLVQAGGSLRLSCAASGSIFLKYAMGWYRQAPGKERELVATISRGGITYYADSVKGRFTISRDNAKNTVYLQMNSLKPEDTAVYYCATTGGRQYGYWGQGTQVTVSS”: the “polyreactivity (PSR sort gate)” value is on record as “high polyreactivity”.

Turning to “QVQLVESGGGLVQAGGSLRLSCAASGSIFLLYAMGWYRQAPGKERELVAAIRWSGARTYYADSVKGRFTISRDKAKNTVYLQMNSLKPDDTAVYYCAADYVVDDIYWWEGDYWGQGTQVTVSS”, the “polyreactivity (PSR sort gate)” value is on record as “high polyreactivity”.

Consider “QVQLVESGGGLVQAGGSLRLSCAASGSIFLLYARGWYRQAPGKERELVAAISRGGSTYYADSVKGRFTISRDNAKNTVYLQMNSLKPEDTAVYYCAAKLYYGYDWGQGTQVTVSS”, for which the “polyreactivity (PSR sort gate)” value is listed as “low polyreactivity”.

Take “QVQLVESGGGLVQAGGSLRLSCAASGSIFLNNAMGWYRQAPGKERELVAAITRNVGSTYYADSVKGRFTISRDNEKNTVYLQMNSLKPEDTAVYYCAADRRRRYDYWGQGTQVTVSS”: the “polyreactivity (PSR sort gate)” value is listed as “low polyreactivity”.

Take “QVQLVESGGGLVQAGGSLRLSCAASGSIFLPNAMGWYRQAPGKEWELVAAISWSGGSTYADSVKGRFTISRDNAKNTVYLQMNSLKPEDTAVYYCAADDGFTPRDLYVGYDYWGLGTQVTVSS”: the “polyreactivity (PSR sort gate)” value is listed as “low polyreactivity”.

Turning to “QVQLVESGGGLVQAGGSLRLSCAASGSIFLQNAMGWYRQAPGKERELVAAITNGGSTNYADSVKGRFTISRDNAKNTVYLQMNSLKPEDTAVYYCAAERAILSSDKQSLWRFDYWGQGTQVTVSS”, the “polyreactivity (PSR sort gate)” value is reported as “low polyreactivity”.

For “QVQLVESGGGLVQAGGSLRLSCAASGSIFLQNAMGWYRQAPGKERELVAAITNGGSTNYADSVKGRFTISRDNAKNTVYLQMNSLKPEDTAVYYCAVVRSYRGINDYWGQGTQVTVSS”, the “polyreactivity (PSR sort gate)” value is given as “low polyreactivity”.

“QVQLVESGGGLVQAGGSLRLSCAASGSIFLSNAIGWYRQAPGKERELVADIDWTGGDTYYADSVKGRFTISRDNAKNTVYLQMNSLKPEDTAVYYCASDYGYRNLLTEYGYWGQGTKVTVSS”: the “polyreactivity (PSR sort gate)” value was “low polyreactivity”.

In the case of “QVQLVESGGGLVQAGGSLRLSCAASGSIFLTNAMGWYRQAPGKERELVAAIRSGGSTSYADSVKGRFTISRDNAKNTVYLQMNSLKPEDTAVYYCNAESDYRNYKVHPSGIYEYWGQGTQVTVSS”, the “polyreactivity (PSR sort gate)” value is reported as “low polyreactivity”.

As for “QVQLVESGGGLVQAGGSLRLSCAASGSIFLTNAMGWYRQAPGKEREMVAAITLSGGITYYADSVKGRFTISRDNAKNNVYLQMNILKPEDTAVYYCAADVPGGIGNGGGYDYWGQGTQVTVSS”, the “polyreactivity (PSR sort gate)” value is “low polyreactivity”.

Regarding “QVQLVESGGGLVQAGGSLRLSCAASGSIFLTYAMGWYRQAPGKESELVAAISSGDSTNYTDSVKGRFTISRDNAKNTVYLQMNSLKPEDTAVYYCAADLTYTMDHWGQGTQVTVSS”, the “polyreactivity (PSR sort gate)” value is “low polyreactivity”.

On to “QVQLVESGGGLVQAGGSLRLSCAASGSIFLVNAKGWYRQAPGKERELVAAITWIGGSTYYADSVKGRFTISRDNAKNTVYLQMNSLKPEDTAVYYCAAYGKRLGGGGYYWGQGTQVTVSS”, for which the “polyreactivity (PSR sort gate)” value was “high polyreactivity”.

Turning to “QVQLVESGGGLVQAGGSLRLSCAASGSIFLVNDMGWYRQAPGKERELVAAISYSGDSTYYADSVKGRFTISRDNAKNTVYLQMNSLKPEDTAVYYCAADVFIISYVAAWHVRIDEFEWGQGTQVTVSS”, the “polyreactivity (PSR sort gate)” value is recorded as “low polyreactivity”.

(Values after the nanobody polyreactivity screen of Harvey et al. (2022).)
